A word on the stoichiometry N: it is a count of units in the complex or per binding partner.

Holding throughout (assay): SEC-MALS
(In general: Size exclusion chromatography separates by hydrodynamic size, large species first.)

In experiment [1] the target is HCoV-229E S 2P trimer (S ectodomain, residues 17-1113) (HCoV-229E) (UniProt P15423).
Experiment [2] concerns the target HCoV-NL63 S 2P trimer (S ectodomain, residues 16-1291) (HCoV-NL63) (UniProt Q6Q1S2).
Experiment [3] deals with HCoV-OC43 S 2P trimer (S ectodomain, residues 15-1263) (HCoV-OC43).

In turn, “HCoV-229E S 2P trimer (S ectodomain, residues 17-1113) (from UniProt P15423 17-1113) (natural protein)” gave a stoichiometry N in experiment [1] of 3.
Take “HCoV-NL63 S 2P trimer (S ectodomain, residues 16-1291) (from UniProt Q6Q1S2 16-1291) (natural protein)”: the stoichiometry N in experiment [2] is 3.
The substance “HCoV-OC43 S 2P trimer (S ectodomain, residues 15-1263) (natural protein)” displayed a stoichiometry N in experiment [3] of 3.

Values taken from article PMC7311918.
